Consider one molecule from patent US10918733B2, “Lipopeptide- and lipoprotein-conjugates and its use” (HELMHOLTZ-ZENTRUM FUER INFEKTIONSFORSCHUNG GMBH, priority 2009, dated 2021).

What all share (type): in vivo, C57BL6 mice
A short description of data set [1]: Tolerability during the immunization period. Conditions: i.n. or s.c. immunization. Here is the method:
(§1) Experimental protocol 1: six-eight weeks-old female C57BL6 mice were purchased from Harlan Winkelmann GmbH (Borchen, Germany) and treated in accordance with local and European Community guidelines. Groups of 5 mice each were immunized on day 1, 14 and 28 with 30 μg of Ova (Sigma Chemie, Deisenhofen, Germany) or LPS-free Ova (EndoGrade Ovalbumin, Hyglos GmbH) alone, co-administered with 5 μg of BPPcysMPEG or with 5 to 10 μg of synthetic BPPcysOva^mPEG alone. For intranasal (i.n.) immunization, 10 μl were applied to each naris, whereas for the s.c. the compounds were resuspended in 50 μl of PBS per dose. Serum samples were collected at different time points (day 0, 13, 27 and 38) after immunization and stored at −20° C. prior to determination of Ova-specific antibodies. 96-well Nunc-Immuno MaxiSorp assay plates (Nunc, Roskilde, Denmark) were coated with 100 μl of Ova (Sigma Chemie, Deisenhofen, Germany) at 5 μg/ml in 0.05 M carbonate buffer (pH 8.2) per well. Serial two-fold dilutions of sera or lavages in PBS with 1% BSA and 0.05% Tween 20 were added (100 μl/well), and plates incubated for 2 h at 37° C. […] Endpoint titers were expressed as the reciprocal log2 of the last dilution, which gave an optical density at 405 nm of 0.1 units above the values of the negative controls after 15 to 30 min of incubation. […]

For data set [2], the system named is Ova-specific secretory IgA. In words: Local Ova-specific secretory IgA in lavages after i.n. immunization (ELISA). The conditions noted are these: day 38. Here is the method:
Experimental protocol: at day 38, mice were sacrificed and the final sampling was performed. Vaginal and lung lavages were obtained by flushing the organs with 1 ml of PBS supplemented with 50 mM EDTA, 0.1% BSA, and 10 mM PMSF. Lavages were then centrifuged to remove debris (10 min at 3000×g), and supernatant fluids were stored at −20° C. To determine the concentration of total IgA present in the lung and vaginal lavages, serial dilutions of the corresponding samples were incubated in microtiter plates that were previously coated with goat anti-mouse IgA (Sigma Chemie), as capture antibodies (100 μl/well). Serial dilutions of purified mouse IgA (Sigma Chemie) were used to generate a standard curve.
To investigate the capacity of BPPcysOva^mPEG to stimulate local immune responses given by the i.n. route, we analyzed the production of Ova-specific secretory IgA in lung, nasal and vaginal lavages from immunized animals.
FIG. 5: Humoral responses stimulated following vaccination using BPPcysOva^mPEG. […] At day 38 post primary immunisation, serum samples were collected and the IgG 1 and IgG2c titres of Ova-specific antibodies were determined by ELISA. […] At day 38 post primary immunisation broncho alveolar lavage (BAL), nasal lavages (NL) and Vaginal lavages (VL) were collected and the Ova-specific secretory IgA (sIgA) expression in samples of immunized mice were determined by ELISA.

Data set [3] relates to Ova-specific IgG1 antibodies. In words: Serum Ova-specific antibody titers after immunization (ELISA). The conditions noted are these: i.n.; by the end of the immunization protocol. Here is the method:
as §1, with “well.” for “well. Serial two-fold dilutions of sera or lavages in PBS with 1% BSA and 0.05% Tween 20 were added (100 μl/well), and plates incubated for 2 h at 37° C.”
FIG. 5: Humoral responses stimulated following vaccination using BPPcysOva^mPEG. […] At day 38 post primary immunisation, serum samples were collected and the IgG 1 and IgG2c titres of Ova-specific antibodies were determined by ELISA. […]

B1: Ova: model antigen ovalbumin (Sigma Chemie) (protein, UniProt P01012 2-386, looked up)
Ovalbumin: GSIGAASMEFCFDVFKELKVHHANENIFYCPIAIMSALAMVYLGAKDSTRTQINKVVRFDKLPGFGDSIEAQCGTSVNVHSSLRDILNQITKPNDVYSFSLASRLYAEERYPILPEYLQCVKELYRGGLEPINFQTAADQARELINSWVESQTNGIIRNVLQPSSVDSQTAMVLVNAIVFKGLWEKAFKDEDTQAMPFRVTEQESKPVQMMYQIGLFRVASMASEKMKILELPFASGTMSMLVLLPDEVSGLEQLESIINFEKLTEWTSSNVMEERKIKVYLPRMKMEEKYNLTSVLMAMGITDVFSSSANLSGISSAESLKISQAVHAAHAEINEAGREVVGSAEAGVDAASVSEEFRADHPFLFCIKHIATNAVLFFGRCVSP
For the molecule B1, the “adverse effect during the immunization period” value in data set [1] was “no adverse effect”. Besides, the “Ova-specific IgA in lung lavages” value in data set [2] is “failed to stimulate the production of detectable levels”. Further, in data set [3], the “Ova-specific IgG1 endpoint titer in serum” value is ≤ 10^6.
